In patent US20220112236A1:

Tests used:
[1] = target: Polyclonal human IgG Gammanorm (human); experiment: affinity chromatography column, IgG binding capacity after 24 h in 0.5 M NaOH at room temperature relative to before incubation
[2] = target: Polyclonal human IgG Gammanorm (human); experiment: affinity chromatography, commercial resin packed in column, polyclonal human IgG (Gammanorm) applied, DBC at 6 min residence time

Remaining binding capacity after 24h 0.5M NaOH incubation [1]: 75.2% | Dynamic binding capacity at 6 min residence time [2]: 41.8 mg/mL
Substance: MabSelect SuRe
